From PMC2118993 (The Journal of Experimental Medicine, 1991)
Each block holds one molecule with its values, some of them ahead of it. Side chains are listed from the residue outwards. Ends that are not written are not given here. * marks the point of attachment. Biotin = O=C1N[C@H]2[C@H](CS[C@H]2CCCCC(=O)*)N1; Ahx = NCCCCCC(=O)O

Key:
[1] = biological target: T1, purified I-Ed class II glycoprotein (Mus musculus, UniProt P01904+P01915); type: binding
T1 sequence (P01904 26-255): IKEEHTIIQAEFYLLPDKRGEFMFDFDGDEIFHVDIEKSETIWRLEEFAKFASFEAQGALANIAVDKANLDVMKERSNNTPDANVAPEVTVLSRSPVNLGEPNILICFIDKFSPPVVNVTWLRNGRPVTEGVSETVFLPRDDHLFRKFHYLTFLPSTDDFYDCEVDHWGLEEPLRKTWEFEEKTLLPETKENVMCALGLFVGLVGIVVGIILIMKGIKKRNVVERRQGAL
T1 sequence (P01915 27-264 limits assumed): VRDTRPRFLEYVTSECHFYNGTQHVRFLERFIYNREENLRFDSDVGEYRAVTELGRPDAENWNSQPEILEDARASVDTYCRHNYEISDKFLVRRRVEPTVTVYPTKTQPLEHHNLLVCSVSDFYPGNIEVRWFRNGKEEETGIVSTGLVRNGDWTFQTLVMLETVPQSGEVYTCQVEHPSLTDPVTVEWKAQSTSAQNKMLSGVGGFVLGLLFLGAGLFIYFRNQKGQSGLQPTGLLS

[2] = tested on: purified I-Ad class II glycoprotein; type: binding, mouse; conditions: immunoassay
[3] = biological target: I-Ed class II MHC glycoprotein, purified (mouse (endogenous in A20 B lymphoma)); assay: ELISA

inhibition of binding of biotin-HEL(104-120) to I-Ed by unlabeled peptide ([1]; 2 μM biotin-HEL(104-120), 24 h, at higher competitor concentrations): partially inhibited
Molecule: FISEAIIHVLHSR [Myo(106-118), reference compound]

optimum pH of binding to I-Ed ([1]; 40 h at various pHs, 2 μM biotin-HEL(104-120) or 10 μM biotin-Myo(106-118)): more acidic pH
binding to I-Ed (in words) ([1]; immunoassay): weakly
binding to I-Ad (in words) [2]: binds well
Molecule: biotin-Myo(106-118): Myo(106-118) biotinylated with biotin-amidocaproate N-hydroxysuccinimide ester at the free α amino group ({Biotin-Ahx}-FISEAIIHVLHSR)

Kd [3]: 2.33 µM
Molecule: {Biotin-Ahx}-GMNAWVAWRNRCK([Ahx-Biotin])GTDVY [biotin-HEL(104-120)]
